This sample holds only a part of the variants without activity.
B1: TPR 5TU (parent)
chain: GGAUCUUCUCGAUCUAACAAAAAAGACAAAUCUGCCACAAAGCUUGAGAGCAUCUUCGGAUGCAGAGGCGGCAGCCUUCGGUGGCGCGAUAGCGCCAACGUUCUCAACUAUGACACGCAAAACGCGUGCUCCGUUGAAUGGAGUUUAUCAUG

Variants of: B1
Test: polymerase ribozyme fitness, log enrichment relative to wild type (log ratio); higher = more active; in vitro selection for triplet polymerase activity
Summary of the method: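 Mutant libraries were PCR-built and transcribed for each subunit of a heterodimeric triplet polymerase ribozyme and selected for one round in triplicate at −7 °C, frozen, before gel excision of extended constructs and streptavidin-bead capture. Input and output libraries were Illumina-sequenced, keeping genotypes with ≥10 input reads and ≥1 read per output. Fitness is a logarithmic ratio of genotype to wild-type enrichment, in base 2, using inverse-variance-weighted replicate averages.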

| Variant | polymerase ribozyme fitness (log ratio) |
| --- | --- |
| G59U C69G | -1.07 |
| A17U A26U U45A A64G C85G A138G G143U | ≤ -4.2 |
| A23C G46C A47G G84U C87A C93U U109G | ≤ -4.2 |
| C123U A142U | -1.13 |
| U45A C54A C95A A113G C129A | ≤ -4.2 |
| C36U G50C C85A A110C | ≤ -4.2 |
| A89G C99G U102A C123G U135C U145G | ≤ -4.2 |
| A73G C87U | -1.55 |
| C54U C75G G80C U82A C87U C99G | ≤ -4.2 |
| U6C G83C A91C U145C | ≤ -4.2 |
| A3G A41U C96U | -1.56 |
| A19U U33C C69U G126U | -0.898 |
| A39G G59A C96G U146C | -3.67 |
| A30U C87G U101G U146A C149G | ≤ -4.2 |
| A24U G136U | -2.44 |
| A12G C95U | 0.599 |
| C32G A47C G74C C116U C132A A138U | ≤ -4.2 |
| G94C A122C A137U | -4.05 |
| A24G C54U G67A G141A A150C | ≤ -4.2 |
| G50U A60U | -0.536 |
| U4G A24U G62U C87U A89U | -3.44 |
| A29U G59A G83C C125U | ≤ -4.2 |
| G84A A89G | -1.6 |
| A22G A106G A122C G124U | -0.81 |

| Variant | polymerase ribozyme fitness (log ratio) |
| --- | --- |
| U15A C63U U151A | -3.9 |
| C51U G58U U77G C96A | -4.18 |
| C5U C51U G84A A150G | -2.47 |
| A12G A40U A60C G88U G117C | ≤ -4.2 |
| C38U A73U | 0.0337 |
| A73U A150G | -2.68 |
| A19U G48C C75U U77C C93G A122U A150C | ≤ -4.2 |
| G92A U127A | -3.83 |
| C8U C38U G48A A60C C72G C96A C99U C114G U139G U148G | ≤ -4.2 |
| A41C C72G A106G G143C U151G | ≤ -4.2 |
| C69G A73C U77C G84A C118U C131A U139G | ≤ -4.2 |
| A16U A17C G50A U56A C87U G88A G117U | ≤ -4.2 |
| A16G U33G U90G C114U G117U A138C A150G | ≤ -4.2 |
| U6C C129G | -3.13 |
| C99A G136A | -0.217 |
| C51A U55A A60C G74A G81A U90G C95A | ≤ -4.2 |
| C85G U144A A150U | -3.7 |
| U9G C32A U55A C57U C93G A142C U148C | -4.04 |
| G68A U139C | ≤ -4.2 |
| G11C U148G | ≤ -4.2 |
| A19C A28C A73G C87U | ≤ -4.2 |
| G74C A97U C132A G141A G143C | ≤ -4.2 |
| U56A G70C | -3.24 |
| U6A C54A C95G A98U | -2.26 |

| Variant | polymerase ribozyme fitness (log ratio) |
| --- | --- |
| G84A A110U | -3.36 |
| A3U A28C G84A G117U A119U G124U | ≤ -4.2 |
| G42C U44G A49U U56C G94U U111C G143A | ≤ -4.2 |
| U82G A113G C125U | -3.28 |
| A29G A30C G86U A137U | ≤ -4.2 |
| G50C A73G G84A | -4.1 |
| U4C A22U A73U C96G A120G | -2.21 |
| G59U G68A U78C C93G G124A C131G G141U | ≤ -4.2 |
| C8G G50C U55C G100A A115G U127C | ≤ -4.2 |
| U53A G83A C118A | -1.88 |
| G67A G81A A91C A137C U148C | ≤ -4.2 |
| C54G U55A G70U G81C C87U G94C C96A C105A A120C | ≤ -4.2 |
| U31C U56A G58C A98U C149U | 0.414 |
| A22C C38A U44G C75A G84A G117A U135A U151G | ≤ -4.2 |
| A52C G83U | -2.01 |
| U33C C85A | -3.61 |
| C54A U61G | -1.82 |
| A20C C85U A115U | -1.06 |
| U13C C35G C36G U55G G86U | -4.16 |
| A20U A39U C51G A66C C93G U134A | ≤ -4.2 |
| A47U U55G | -1.03 |
| U56G G58C C99G | -2.63 |
| A21G U53A A60U C96U C99G A110G | ≤ -4.2 |
| U13C A21C | 0.934 |

| Variant | polymerase ribozyme fitness (log ratio) |
| --- | --- |
| C93A U102C C105A C125G G143U U144A | ≤ -4.2 |
| A28U A52C A97U A137U U139C | ≤ -4.2 |
| U13A U55A A89C G128U | -3.92 |
| A3U G70A A89C U139C U144A | ≤ -4.2 |
| U56A G58C C93U U127G U145A | -3.83 |
| U61A C125A | -2.73 |
| U55A A113C | -2.92 |
| A12G C35U U56C C57G G58U A60G | -0.194 |
| A12C A19C U45G G84U A142C | ≤ -4.2 |
| U7A G83A A121G U145G U148G | ≤ -4.2 |
| U55A U78C C123G | -0.403 |
| C54U C57A C75U A91G | -3.62 |
| A49C C51U A73G | ≤ -4.2 |
| C43G G50U U61C G86A C95U C125U U146G | ≤ -4.2 |
| C5G A19C G42U C79U C105U G126U | ≤ -4.2 |
| A49G G71A C93G | ≤ -4.2 |
| U45G G48U A60U C72A G80C C96A U102G | ≤ -4.2 |
| A22U C35U A47U G59U G67A C132A G136U | ≤ -4.2 |
| C43U G50U U55A C76U G136A G152U | ≤ -4.2 |
| C57G C85U | -1.28 |
| A12C A16G U55A | -2.45 |
| G86A A107U | -3.39 |
| A28G A40G G50A A52G G65U C96U | -3.77 |
| U9C A12G A21U G42U C51G U53A C96A | ≤ -4.2 |

| Variant | polymerase ribozyme fitness (log ratio) |
| --- | --- |
| G88U A106G | -3.91 |
| A40G A52U A91C C108U G143C U148A | ≤ -4.2 |
| A16G C54U C76A C93U A97G C103U C123U G128C | ≤ -4.2 |
| U6C C27U U145C | -3.08 |
| G34U G141C | -2.78 |
| G42A A52G U61G G86A C114A | -3.88 |
| C51U C69G C118G A142C C149G | ≤ -4.2 |
| G50C G58A C125A | -3.17 |
| A12U A39U A150C | ≤ -4.2 |
| C69G C93G | -3.97 |
| G62C C63U C79A C85U A98U C99U C131A U135C U144A | ≤ -4.2 |
| U77A C87U A98C C103A C125U U135G | ≤ -4.2 |
| C14U C18A A19C A22G C93A A120C U139C G143U | ≤ -4.2 |
| A52G C79U G92A C116G | ≤ -4.2 |
| C85A U135A | -0.589 |
| A17U U104A A106U G141C | ≤ -4.2 |
| C36A A73G C96U A121C C131U | ≤ -4.2 |
| C5G G11A A73G C76U | -2.17 |
| C27A C38G C43U C85U G133A U144C | ≤ -4.2 |
| A73U G84A U144C | -1.83 |
| A29U G59C G88U C95G | ≤ -4.2 |
| C75U U144C | -0.607 |
| G83A U146G | -1.33 |
| A26U A37C C95G A107C G152U | ≤ -4.2 |

| Variant | polymerase ribozyme fitness (log ratio) |
| --- | --- |
| U9G C69A U102C | ≤ -4.2 |
| A12U G143U | -3.14 |
| C14A C85A | -2.69 |
| A91G U145A | -3.07 |
| G112U | -2.77 |
| U31A C36A A52G C76A C95U G124A G140U U145G | ≤ -4.2 |
| C27A U45A C87U A138C | ≤ -4.2 |
| A24U U53A G80A C85U A142C | ≤ -4.2 |
| A16G A30U C38A C96G A97C C105G A107U A110U | ≤ -4.2 |
| C54U G84C G100C C108A A113U G141U | ≤ -4.2 |
| C32G U55A G58A G68A C85U G88C C93A A106G C116A U135A | ≤ -4.2 |
| A30U U45A G50C C79G G83C G126C | ≤ -4.2 |
| U55A C103G | -2.22 |
| G42A A73G C87U | ≤ -4.2 |
| A19C C57U G86A | -0.316 |
| U44G A89U U144C | ≤ -4.2 |
| A3U G83A | -1.47 |
| G50U C57U G92C | -0.983 |
| G58A C87U C93A U130G | ≤ -4.2 |
| A21G U31A C95A | 0.669 |
| U56A C96U A138U | -4.06 |
| A17G G58A C93U U101G U139A | ≤ -4.2 |
| A39C A52G | -2.32 |
| C35U C96U | -0.126 |

| Variant | polymerase ribozyme fitness (log ratio) |
| --- | --- |
| A107G C131A | -4.19 |
| A47G C63G G74C A120G | ≤ -4.2 |
| G50C G92A C116U U151C | ≤ -4.2 |
| U7A A49C C103A U139A | ≤ -4.2 |
| C5G C38U A39C C95A G100C | ≤ -4.2 |
| U134A A137G | -3.22 |
| U7A C93G A113U A138C | ≤ -4.2 |
| A3C C10G C57A G83A | -3.78 |
| A19U C38U A49C G58C C79U G88A A97C | ≤ -4.2 |
| A60C C76U G88U C116G U135G A142G U148G | ≤ -4.2 |
| U4A C8U C108G G140C | ≤ -4.2 |
| A121G U134G | -2.56 |
| C27G C32U C36U G88A C99U G141U G152C | -4.05 |
| C51U G84A C96A C149U | -2.56 |
| U56A G88C | -4.12 |
| A17C A28U G46U A98U A107G A113G G133U | ≤ -4.2 |
| A17G G83U U134A | -2.39 |
| U15G G50C C95A C99U A120U | ≤ -4.2 |
| A23C A24G A28C C63U G67A A121U U144A | ≤ -4.2 |
| C79G G84A G100A A110C | ≤ -4.2 |
| A21U G50C | -3.57 |
| A29C C35A | -3.91 |
| G46C A49C U56A C57U G62A C63A C69U G86C C99U G141C U145G C149U A150U | ≤ -4.2 |

From the RNAGym collection of RNA variant scans (doi:10.1073/pnas.2313332121)
